Data on 4 molecules can be found in US20100105569A1 (AbbVie / Abbott, published 2010).

Assay [1] deals with biotinylated HA tag peptide. Nature of the assay: free scFv selected with 50 nM HA; translated with PDI.
Assay [2] addresses biotinylated HA tag peptide. Nature of the assay: free scFv selected with 50 nM HA; translated without PDI.
Assay [3] concerns the target biotinylated HA tag peptide. Nature of the assay: mRNA-scFv (ligated protein) selected with 50 nM HA; translated with PDI.
Assay [4] deals with biotinylated HA tag peptide. Put plainly: mRNA-scFv selected with 50 nM HA; PDI: Yes, RT before selection with DTT.
Assay [5] deals with biotinylated HA tag peptide. Put plainly: mRNA-scFv (ligated protein) selected with 50 nM HA; translated without PDI.
The target in assay [6] is biotinylated HA tag peptide. Put plainly: mRNA-scFv selected with 50 nM HA; PDI: Yes, RT before selection without DTT.
Assay [7] has as its target biotinylated HA tag peptide. Nature of the assay: mRNA-scFv selected with 50 nM HA; PDI: No, RT: No (same value as the 33rd table, row 10, column 5).
In assay [8] the target is biotinylated HA tag peptide. Nature of the assay: mRNA-scFv selected with 50 nM HA; PDI: Yes, RT: No (same value as the 33rd table, row 11, column 5).
The target in assay [9] is T1, human IL-12 (biotinylated) (human, UniProt P29459 23-219; P29460 23-328, biotinylated (site and subunit not stated)).
T1 construct: also called hIL-12
T1 sequence (looked up) 1: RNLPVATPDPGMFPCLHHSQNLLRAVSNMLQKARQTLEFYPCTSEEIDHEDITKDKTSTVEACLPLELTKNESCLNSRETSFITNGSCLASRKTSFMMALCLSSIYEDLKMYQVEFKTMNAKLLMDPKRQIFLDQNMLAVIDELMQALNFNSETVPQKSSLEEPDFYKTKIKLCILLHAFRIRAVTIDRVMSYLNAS
T1 sequence (looked up) 2: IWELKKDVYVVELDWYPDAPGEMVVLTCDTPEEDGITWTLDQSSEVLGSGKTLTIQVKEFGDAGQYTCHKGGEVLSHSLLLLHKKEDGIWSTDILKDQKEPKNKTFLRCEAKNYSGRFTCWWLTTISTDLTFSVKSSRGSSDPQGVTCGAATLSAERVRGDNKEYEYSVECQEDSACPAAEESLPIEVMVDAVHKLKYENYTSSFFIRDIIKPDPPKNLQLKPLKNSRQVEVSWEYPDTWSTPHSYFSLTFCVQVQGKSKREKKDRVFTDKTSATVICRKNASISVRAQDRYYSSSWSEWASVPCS
Nature of the assay: mRNA-scFv selected with 50 nM IL-12, bead capture, % of input 35S counts recovered.

B1: 17/9 scFv (spacer form not stated) (scFv)
scFv: EVQLVESGGGLVQPGRSLRLSCAASGFTFDDYAMHWVRQAPGKGLDWVSAITWNSGHIDYADSVEGRFAVSRDNAKNALYLQMNSLRPEDTAVYYCTKASYLSTSSSLDNWGQGTLVTVSSGGGGSGGGGSGGGGSDIQMTQSPSSLSASIGDRVTITCRASQGIRNYLAWYQQKPGKAPKLLIYAASTLQSGVPSRFSGSGSGTDFTLTISSLQPEDVATYYCQKYNSAPYAFGQGTKVEIKR
For the molecule B1, the % of Recovery, HA (50 nM) selection in [1] came to 30.5%; in [2] it was 3.3%; in assay [3], 12.4%; in assay [4], 2%; in assay [5], 2.3%; in [6], 9.4%. Besides, the % of Recovery, HA (50 nM) selection in assay [7] is 2.3%; in assay [8] it was 12.4%.

B2: Y61-scGene3 (Y61 scFv Gene3) (scFv)
scFv: MQVQLVQSGGGVVQPGRSLRLSCAASGFTFSSYGMHWVRQAPGKGLEWVAFIRYDGSNKYYADSVKGRFTISRDNSKNTLYLQMKSLRAEDTAVYYCKTHGSHDNWGQGTMVTVSSGGGGSGGGGSGGGGSSYVLTQPPSVSGTPGQRVTISCSGGRSNIGSNTVKWYQQLPGTAPKLLIYGNDQRPSGVPDRFSGSKSGTSASLAITGVQAEDEADYYCQSYDRGTHPALLFGTGTKLTVLGQPKAAPSVTLPQPPVNAGGGSGGGSGGGSEGGGSEGGGSEGGGSEGGGSGGGSGSGDFDYEKMANANKGAMTENADENALQSDAKGKLDSVATDYDYKDDDDKASAI
notes: also called PF-y61scGene3
B2: in assay [9], the “Percent of Recovery, IL-12 (50 nM selection)” value (“Percent … (50 nM selection)” for short) came to 8%.

B3: Y61-scGene3pA (Y61 scFv Gene3PA) (scFv)
scFv: MQVQLVQSGGGVVQPGRSLRLSCAASGFTFSSYGMHWVRQAPGKGLEWVAFIRYDGSNKYYADSVKGRFTISRDNSKNTLYLQMKSLRAEDTAVYYCKTHGSHDNWGQGTMVTVSSGGGGSGGGGSGGGGSSYVLTQPPSVSGTPGQRVTISCSGGRSNIGSNTVKWYQQLPGTAPKLLIYGNDQRPSGVPDRFSGSKSGTSASLAITGVQAEDEADYYCQSYDRGTHPALLFGTGTKLTVLGQPKAAPSVTLPQPPVNAGGGSGGGSGGGSEGGGSEGGGSEGGGSEGGGSGGGSGSGDFDYEKMANANKGAMTENADENALQSDAKGKLDSVATDYDYKDDDDKASAI
Consider B3, for which the “Percent … (50 nM selection)” value in [9] was determined as 6.1%.

B4: Y61 scFv short (Y61-scCL-short) (scFv)
scFv: MQVQLVQSGGGVVQPGRSLRLSCAASGFTFSSYGMHWVRQAPGKGLEWVAFIRYDGSNKYYADSVKGRFTISRDNSKNTLYLQMKSLRAEDTAVYYCKTHGSHDNWGQGTMVTVSSGGGGSGGGGSGGGGSSYVLTQPPSVSGTPGQRVTISCSGGRSNIGSNTVKWYQQLPGTAPKLLIYGNDQRPSGVPDRFSGSKSGTSASLAITGVQAEDEADYYCQSYDRGTHPALLFGTGTKLTVLGQPKAAPSVTLDYKDDDDKASAI
notes: Human anti-hIL-12 scFv, in vitro translated with 35S-methionine; tested as free protein or as mRNA-scFv (ligated protein), as said under assay; also called Y61-CL-short
Consider B4, for which, in assay [9], the “Percent … (50 nM selection)” value came to 21.1%.
